The record followed here is paper PMC10864275, “Binding kinetics drive G protein subtype selectivity at the β1-adrenergic receptor” (Nature Communications, 2024).

“And” between values parts separate entries of the source, which are not always exact repeats. Identical values can stand only once.

What all share (settings): both partners purified
Test [1] has as its target T1, avi-β1AR-E (turkey β1-adrenergic receptor, β1AR-E construct with N-terminal biotinylated avi-tag) (turkey, UniProt P07700 1-367, Δ3-32 | Δ244-271 | C358A^8.59 | C116L^3.27 | R68S^1.59 | F327A^7.37 | …, biotin on the avi-tag).
T1 construct: turkey β1-adrenergic receptor; N-terminus truncated (Δ3-32), C-terminus truncated (Δ368-483), IL3 truncated (Δ244-271); as β1AR-W (β1AR-MetΔ5) but with E130 as in the wild type; source: Sf9 (baculovirus), purified in LMNG (NiNTA, SEC), biotinylated with GST-BirA, repurified by SEC; not shown: avi-tag, N-terminal, kept
Briefly: BLI; biotinylated avi-β1AR in LMNG on streptavidin biosensors, mini-G in solution; 500 μM isoprenaline; 20 mM TrisHCl pH 8.0, 150 mM NaCl, 15 mM MgCl2, 0.02% LMNG, 0.1% BSA; 25 °C; single point measurements, monophasic 1:1 local fit, n = 3. In general terms: In BLI a coated tip is dipped into the sample, and binding shifts an interference pattern.

Test [2] has as its target T2, avi-β1AR-W (turkey β1-adrenergic receptor β1AR-MetΔ5, thermostabilised with E130W, N-terminal biotinylated … (turkey, UniProt P07700 1-367, Δ3-32 | Δ244-271 | C358A^8.59 | C116L^3.27 | R68S^1.59 | E130W^3.41 | …, biotin on the avi-tag)).
T2 construct: turkey β1-adrenergic receptor; N-terminus truncated (Δ3-32), C-terminus truncated (Δ368-483), IL3 truncated (Δ244-271); source: Sf9 (baculovirus), purified in LMNG (NiNTA, SEC), biotinylated with GST-BirA and repurified by SEC; not shown: avi-tag, N-terminal, kept
Briefly: BLI; biotinylated avi-tagged receptor in LMNG immobilised on streptavidin biosensors; 500 μM isoprenaline; mini-G in solution at a single concentration (0.125-4 μM); 20 mM TrisHCl pH 8.0, 150 mM NaCl, 15 mM MgCl2, 0.02% LMNG, 0.1% BSA; 25 °C; 1:1 monophasic local partial fit; one of n = 3 tips.

Test [3] has as its target T3, avi-β1AR-E (turkey β1-adrenergic receptor, minimally thermostabilised construct with E130 restored, … (turkey, UniProt P07700 1-367, Δ3-32 | Δ244-271 | C358A^8.59 | C116L^3.27 | R68S^1.59 | F327A^7.37 | …, biotin on the avi-tag)).
T3 construct: turkey β1-adrenergic receptor; N-terminus truncated (Δ3-32), C-terminus truncated (Δ368-483), IL3 truncated (Δ244-271); as β1AR-W (β1AR-MetΔ5) but with E130W reverted to E130; source: Sf9 (baculovirus), purified in LMNG (NiNTA, SEC), biotinylated with GST-BirA and repurified by SEC; not shown: avi-tag, N-terminal, kept
The description is as above.

T2 sequence (P07700 other isoform, or with tags, fused parts or gaps with the stated changes): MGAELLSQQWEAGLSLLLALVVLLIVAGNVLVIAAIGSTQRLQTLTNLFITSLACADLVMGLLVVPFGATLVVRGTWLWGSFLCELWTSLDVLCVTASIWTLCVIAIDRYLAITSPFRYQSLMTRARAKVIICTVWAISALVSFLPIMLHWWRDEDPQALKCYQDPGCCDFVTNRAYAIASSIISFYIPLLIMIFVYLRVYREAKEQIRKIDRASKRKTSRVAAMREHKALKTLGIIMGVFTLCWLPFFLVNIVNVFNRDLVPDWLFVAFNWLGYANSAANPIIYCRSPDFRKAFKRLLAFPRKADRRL
T1 sequence (P07700 other isoform, or with tags, fused parts or gaps with the stated changes): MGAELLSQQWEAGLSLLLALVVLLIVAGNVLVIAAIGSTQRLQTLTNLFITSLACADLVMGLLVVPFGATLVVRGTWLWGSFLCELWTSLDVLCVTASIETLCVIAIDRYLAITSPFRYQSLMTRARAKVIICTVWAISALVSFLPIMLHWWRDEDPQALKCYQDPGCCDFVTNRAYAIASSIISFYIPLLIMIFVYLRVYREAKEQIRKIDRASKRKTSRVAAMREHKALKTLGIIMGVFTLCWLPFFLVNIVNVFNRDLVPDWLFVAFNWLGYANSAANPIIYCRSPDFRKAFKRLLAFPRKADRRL

B1: mini-Gs/i R43 with C96A (domain or fragment)
chain: IEKQLQKDKQVYRATHRLLLLGADNSGKSTIVKQMRIYHTSGIFETKFQVDKVNFHMFDVGGQRDERRKWIQAFNDVTAIIFVVDSSDYNRLQEALNDFKSIWNNRWLRTISVILFLNKQDLLAEKVLAGKSKIEDYFPEFARYTTPEDATPEPGEDPRVTRAKYFIRDEFLRISTASGDGRHYCYPHFTCAVDTENARRIFNDVTDIIIKMNLRDCGLF
As usually defined, the Kd is the constant that tells how readily two partners part at equilibrium. Regarding B1, in test [1], the Kd was determined as 1.09 µM and the “fold reduction of kon against mini-Gs” value turned out to be 40 fold.

B2: mini-Gs/q R70 (domain or fragment)
chain: IEKQLQKDKQVYRATHRLLLLGADNSGKSTIVKQMRIYHTSGIFETKFQVDKVNFHMFDVGGQRDERRKWIQCFNDVTAIIFVVDSSDYNRLQEALNDFKSIWNNRWLRTISVILFLNKQDLLAEKVLAGKSKIEDYFPEFARYTTPEDATPEPGEDPRVTRAKYFIRDEFLRISTASGDGRHYCYPHFTCAVDTENARRIFNDCKDIILQMNLREYNLV
The molecule B2 registered a Kd in test [1] of 0.24 µM.

B3: mini-Gs/i R43 C96A (chimera of mini-Gs with the receptor-interacting residues of the α5 helix replaced by Gi1 residues) (domain or fragment)
chain: IEKQLQKDKQVYRATHRLLLLGADNSGKSTIVKQMRILHTSGIFETKFQVDKVNFHMFDVGGQRDERRKWIQAFNDVTAIIFVVDSSDYNRLQEALNDFKSIWNNRWLRTISVILFLNKQDLLAEKVLAGKSKIEDYFPEFARYTTPEDATPEPGEDPRVTRAKYFIRDEFLRISTASGDGRHYCYPHFTCAVDTENARRIFNDVTDIIIKMNLRDCGLF
As usually defined, the koff is a measure of how fast the partners let go of each other. For orientation: kon means a measure of how fast the partners come together. Turning to B3, in test [2], the Kd was 3.05 µM and 2.4 µM and 2.15 µM; the koff was 0.0063 s⁻¹ and 0.00605 s⁻¹ and 0.00634 s⁻¹; the kon was 2070 M⁻¹ s⁻¹ and 2520 M⁻¹ s⁻¹ and 2950 M⁻¹ s⁻¹. In test [3], the dissociation constant (Kd) is 1.07 µM and 1.18 µM and 1.03 µM; the koff was 0.00392 s⁻¹ and 0.00399 s⁻¹ (2×); the kon was 3670 M⁻¹ s⁻¹ and 3370 M⁻¹ s⁻¹ and 3860 M⁻¹ s⁻¹.

B4: mini-Gs/q R70 (chimera of mini-Gs with the receptor-interacting residues of the α5 helix replaced by Gq residues) (domain or fragment)
chain: GIEKQLQKDKQVYRATHRLLLLGADNSGKSTIVKQMRILHGGSGGSGGTSGIFETKFQVDKVNFHMFDVGGQRDERRKWIQCFNDVTAIIFVVDSSDYNRLQEALNDFKSIWNNRWLRTISVILFLNKQDLLAEKVLAGKSKIEDYFPEFARYTTPEDATPEPGEDPRVTRAKYFIRDEFLRISTASGDGRHYCYPHFTCAVDTENARRIFNDCKDIILQMNLREYNLV
On to B4, for which, in test [2], the Kd is 0.529 µM and 0.541 µM and 0.533 µM; the koff is 0.00658 s⁻¹ and 0.00672 s⁻¹ and 0.00679 s⁻¹; the kon is 12400 M⁻¹ s⁻¹ (2×) and 12800 M⁻¹ s⁻¹. Besides, in test [3], the Kd was 0.241 µM and 0.242 µM and 0.244 µM; the koff was 0.00344 s⁻¹ (2×) and 0.0034 s⁻¹; the kon is 14300 M⁻¹ s⁻¹ and 14200 M⁻¹ s⁻¹ and 14000 M⁻¹ s⁻¹.
